Test results taken from patent US20250236669A1 (BIRD ROCK BIO, published 2025).

Assays:
[1] = molecular target: T1, human CB2 (on TRex-CHO cells) (human, UniProt P34972 1-360); test: flow cytometry, mean fluorescence intensity against antibody concentration, TRex-CHO human CB2 cells
T1 construct: whole, on cells; also called TRexCHO Human CB2; CB2 expression cell line

[2] = molecular target: T2, mouse CB1 (on TRex-CHO cells) (mouse, UniProt P47746 1-473); test: flow cytometry, mean fluorescence intensity against antibody concentration, TRex-CHO mouse CB1 cells
T2 construct: whole, on cells; also called TRexCHO Mouse CB1

[3] = molecular target: T3, native full length human CB1 receptor (TRex-CHO A156 cells) (human, UniProt P21554 1-472); test: cell-based or functional assay
[4] = molecular target: T3, native full length human CB1 receptor …; test: cell-based or functional assay; remark: listed apart in the source
[5] = molecular target: T3, native full length human CB1 receptor …; test: cell-based or functional assay; remark: listed apart in the source
[6] = molecular target: T3, native full length human CB1 receptor …; test: cell-based or functional assay; remark: listed apart in the source
[7] = molecular target: T3, native full length human CB1 receptor …; test: cell-based or functional assay; remark: listed apart in the source
[8] = molecular target: T2, mouse CB1 (on TRex-CHO cells); test: flow cytometry on cells expressing mouse CB1
[9] = molecular target: T3, native full length human CB1 receptor …; test: cell-based or functional assay; remark: listed apart in the source
[10] = molecular target: T3, native full length human CB1 receptor …; test: cell-based or functional assay; remark: listed apart in the source
[11] = molecular target: T3, native full length human CB1 receptor …; test: cell-based or functional assay; remark: listed apart in the source

T1 sequence (P34972 whole entry): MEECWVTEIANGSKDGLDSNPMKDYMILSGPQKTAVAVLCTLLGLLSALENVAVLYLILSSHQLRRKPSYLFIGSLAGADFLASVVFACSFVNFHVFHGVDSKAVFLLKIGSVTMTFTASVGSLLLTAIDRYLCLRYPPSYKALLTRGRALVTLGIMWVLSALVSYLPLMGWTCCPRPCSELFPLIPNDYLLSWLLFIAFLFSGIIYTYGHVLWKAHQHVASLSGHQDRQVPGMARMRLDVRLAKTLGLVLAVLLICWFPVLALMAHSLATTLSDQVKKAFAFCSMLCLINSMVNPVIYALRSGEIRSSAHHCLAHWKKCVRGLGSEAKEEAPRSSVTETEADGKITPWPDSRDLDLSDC
T3 sequence (P21554 whole entry): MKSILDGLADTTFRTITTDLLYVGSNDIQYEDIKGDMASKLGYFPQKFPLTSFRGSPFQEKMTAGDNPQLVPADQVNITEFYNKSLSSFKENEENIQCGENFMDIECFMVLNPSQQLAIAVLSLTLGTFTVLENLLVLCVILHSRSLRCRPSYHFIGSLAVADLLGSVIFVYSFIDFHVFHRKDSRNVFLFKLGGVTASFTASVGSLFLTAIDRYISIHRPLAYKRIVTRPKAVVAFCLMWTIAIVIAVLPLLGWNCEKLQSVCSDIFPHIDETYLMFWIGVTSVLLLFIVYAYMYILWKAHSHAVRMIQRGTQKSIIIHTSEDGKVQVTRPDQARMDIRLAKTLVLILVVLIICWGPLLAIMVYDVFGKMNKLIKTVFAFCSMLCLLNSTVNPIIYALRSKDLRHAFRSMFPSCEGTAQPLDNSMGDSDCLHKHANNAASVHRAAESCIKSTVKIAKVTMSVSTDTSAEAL
T2 sequence (P47746 whole entry): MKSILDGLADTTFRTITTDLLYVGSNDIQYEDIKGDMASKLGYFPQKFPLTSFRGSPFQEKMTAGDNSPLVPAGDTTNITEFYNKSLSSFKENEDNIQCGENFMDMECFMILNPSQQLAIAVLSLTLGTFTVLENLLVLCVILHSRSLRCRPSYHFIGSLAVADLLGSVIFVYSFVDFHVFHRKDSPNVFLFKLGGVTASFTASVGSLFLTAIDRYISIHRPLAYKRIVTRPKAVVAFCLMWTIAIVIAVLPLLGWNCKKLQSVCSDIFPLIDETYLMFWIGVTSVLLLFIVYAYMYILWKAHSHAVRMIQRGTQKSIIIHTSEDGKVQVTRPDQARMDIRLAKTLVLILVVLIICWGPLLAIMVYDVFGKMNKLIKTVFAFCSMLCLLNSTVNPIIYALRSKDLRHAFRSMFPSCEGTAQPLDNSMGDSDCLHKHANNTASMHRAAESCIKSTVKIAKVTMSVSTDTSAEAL

B1: P1C4-h2-IgG1 (antibody)
heavy: not shown
light: EIVLTQSPATLSLSPGERATLSCRASQSVSSSYLHWYQQKPGQAPRLLIYSTSNLASGIPARFSGSGSGTDFTLTISRLEPEDFAVYYCHQYHRSPPTFGQGTKVEIKRTVAAPSVFIFPPSDEQLKSGTASVVCLLNNFYPREAKVQWKVDNALQSGNSQESVTEQDSKDSTYSLSSTLTLSKADYEKHKVYACEVTHQGLSSPVTKSFNRGEC
binding result [1]: no binding (tested: about 300 nM) | binding result [2]: no binding (tested: about 300 nM)

B2: P1C4-h4-IgG1 (antibody)
heavy: not shown
light: EIVLTQSPATLSLSPGERATLSCRASQSVSSSYLHWYQQKPGQAPRLLIYSTSNLASGIPARFSGSGSGTDFTLTISRLEPEDFAVYYCHQYHRSPPTFGQGTKVEIKRTVAAPSVFIFPPSDEQLKSGTASVVCLLNNFYPREAKVQWKVDNALQSGNSQESVTEQDSKDSTYSLSSTLTLSKADYEKHKVYACEVTHQGLSSPVTKSFNRGEC
notes: also called P1C4-H4 (YENG); P1C4-H4 (YENG)-IgG
binding result [1]: no binding (tested: about 300 nM) | binding result [2]: no binding (tested: about 300 nM)

B3: P1C4-H4-IgG4 (antibody)
heavy: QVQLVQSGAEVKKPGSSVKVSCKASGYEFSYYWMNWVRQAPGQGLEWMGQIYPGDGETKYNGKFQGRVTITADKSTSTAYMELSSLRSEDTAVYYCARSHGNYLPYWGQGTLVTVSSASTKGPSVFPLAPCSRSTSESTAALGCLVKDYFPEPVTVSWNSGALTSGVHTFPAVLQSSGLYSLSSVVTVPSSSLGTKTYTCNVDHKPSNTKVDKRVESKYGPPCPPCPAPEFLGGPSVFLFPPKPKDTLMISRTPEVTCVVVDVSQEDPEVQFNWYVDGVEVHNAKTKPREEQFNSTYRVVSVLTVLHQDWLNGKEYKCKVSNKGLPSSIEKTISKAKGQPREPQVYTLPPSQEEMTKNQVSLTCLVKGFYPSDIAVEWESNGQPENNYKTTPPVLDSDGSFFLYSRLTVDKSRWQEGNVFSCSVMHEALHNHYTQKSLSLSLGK
light: EIVLTQSPATLSLSPGERATLSCRASQSVSSSYLHWYQQKPGQAPRLLIYSTSNLASGIPARFSGSGSGTDFTLTISRLEPEDFAVYYCHQYHRSPPTFGQGTKVEIKRTVAAPSVFIFPPSDEQLKSGTASVVCLLNNFYPREAKVQWKVDNALQSGNSQESVTEQDSKDSTYSLSSTLTLSKADYEKHKVYACEVTHQGLSSPVTKSFNRGEC
cAMP IC50, antagonist assay; CHO-S batch [n] [3]: 51 nM | cAMP IC50, antagonist assay; Mean of Batch 1 [n] [3]: 54 nM | cAMP IC50, antagonist assay; Mean of Batch 2 [n] [3]: 54 nM | IC50, cAMP activity; after dialysis to pH 3 and 48 h at 40 C [4]: 139 nM | IC50, cAMP activity; after dialysis to pH 9 and 48 h at 40 C [4]: 64 nM | IC50, potency (cAMP); at 4 C for 33 days [5]: 62 nM | IC50, potency (cAMP); at 40 C for 33 days [5]: 71 nM | IC50, cAMP antagonist assay; after 5 freeze/thaw cycles [6]: 32 nM

B4: P1C4-h0-IgG1 (antibody, V domains shown)
VH: QVQLVQSGAEVKKPGSSVKVSCKASGGTFSYYWMNWVRQAPGQGLEWMGQIYPGDGETKYAQKFQGRVTITADKSTSTAYMELSSLRSEDTAVYYCARSHGNYLPYWGQGTLVTVSS
VL: EIVLTQSPATLSLSPGERATLSCRASQSVSSSYLHWYQQKPGQAPRLLIYSTSNLASGIPARFSGSGSGTDFTLTISRLEPEDFAVYYCHQYHRSPPTFGQGTKVEIKR
IC50, cAMP functional assay, native human CB1 TRex-CHO cells [7]: 146 nM | cAMP IC50, antagonist assay; Mean of Batch 1 [n] [3]: 158 nM | cAMP IC50, antagonist assay; Mean of Batch 2 [n] [3]: 343 nM | binding result [1]: no binding (tested: about 300 nM) | binding result [2]: no binding (tested: about 300 nM)

B5: 36E12B6C2 IgG (antibody, V domains shown)
VH: QVQLQQSGAELVRPGSSVKISCKASGYEFSYYWMNWVKQRPGQGLQWIGQIYPGDGDTNYNGKFKGKATLTADKSSSTAYMHLTSLTSEDSAVYFCARSGGNPFAFWGQGTLVTVSA
VL: DIQMTQTSSSLSASLGDRVTFSCRASQDISNYLNWYQQKPDGTVKLLIYYTSRLHSGVTSRFRGSGSGTDYSLTISNLEQEDVATYFCQQGHTLPWSFGGGTKLEIKR
notes: Hybridoma-derived
binding result [8]: no binding

B6: PA2LR3-P6G7 (chimeric) (antibody, human IgG1, kappa, V domains shown)
VH: EVQLQQSGAELVRPGSSVKISCKASGFAFSNYWMNWVKQRPGQGLEWIGQIYPGDGDTNFNGKFKGRAILTADISSNTAYMQLSSLTSEDSAVYFCARSHGNYFPYWGQGTLVTVSA
VL: DIVLTQSPAIMSASLGERVTMTCTASSSVSSSYLHWYQQKPGSSPKLWIYSTSNLASGVPARFSGSGSGTSYSLTISSMEAEDAATYYCHQHHRSPPTFGAGTKLELKR
EC50, cAMP agonist functional assay, CB1 TRex CHO cells [9]: > 300 nM

B7: PA2LR3-P4B1 (chimeric) (antibody, human IgG1, kappa, V domains shown)
VH: EVQLQQSGAELVRPGSSVKISCKASGFAFSNYWMNWVKQRPGQGLEWIGQIYPGDGDTNFNGKFKGRAILTADISSNTAYMQLSSLTSEDSAVYFCARSHGNYFPYWGQGTLVTVSA
VL: QIVLTQSPAIMSASLGERVTMTCTASSSVSSSYLHWYQQKPGSSPKLWIYSTSNLASGVPARFSGSGSGTSYSLTISSMEAEDAATYYCHQYHRSPLTFGAGTKLELKR
EC50, cAMP agonist functional assay, CB1 TRex CHO cells [9]: > 300 nM

B8: PA2LR3-P2D3 (chimeric) (antibody, human IgG1, kappa, V domains shown)
VH: EVQLQQSGAELVRPGSSVKISCKASGYAFSYYWMNWVKQRPGQGLEWIGQIYPGDGDTNYNGKFKGKATLTADKSSSTAYMQLSSLTSEDSAVYFCARSHGSYFAYWGQGTLVTVSA
VL: DIELAQSPASLAVSLGQRATISCRASESVDSYGNSFMHWYQQKPGQPPKLLIYLASNLESGVPARFSGSGSRADFTLTIDPVEADDAATYYCLQYASSPPTFGAGTKLEIKR
EC50, cAMP agonist functional assay, CB1 TRex CHO cells [9]: > 300 nM

B9: PA2LR3-P6B12 (chimeric) (antibody, human IgG1, kappa, V domains shown)
VH: EVQLQQSGAELVRPGSSVKISCKASGYAFSYYWMNWVKQRPGQGLEWIGQIYPGDGDTNYNGKFKGKATLTADKSSSTAYMQLSSLTSEDSAVYFCARSHGNYFAYWGQGTLVTVSA
VL: QIVLTQSPAIMSASLGERVTMTCTASSSVSSSYLHWYQQKPGSSPKLWIYSTSNLASGVPARFSGSGSGTSYSLTISSMEAEDAATYYCHQYHRSPLAFGAGTKLELKR
EC50, cAMP assay in the presence of CP55940, CB1 TRex CHO cells [9]: ~1000 nM

B10: P1C4-h2 Fab (Fab, V domains shown)
VH: QVQLVQSGAEVKKPGSSVKVSCKASGYEFSYYWMNWVRQAPGQGLEWMGQIYPGDGETKYAQKFQGRVTITADKSTSTAYMELSSLRSEDTAVYYCARSHGNYLPYWGQGTLVTVSS
VL: EIVLTQSPATLSLSPGERATLSCRASQSVSSSYLHWYQQKPGQAPRLLIYSTSNLASGIPARFSGSGSGTDFTLTISRLEPEDFAVYYCHQYHRSPPTFGQGTKVEIK
IC50 cAMP assay (Fab), CB1 TRex CHO cells [10]: 52 nM | IC50 (read off the curve) [11]: ~30 nM

B11: P1C4-h4 Fab (Fab, V domains shown)
VH: QVQLVQSGAEVKKPGSSVKVSCKASGYEFSYYWMNWVRQAPGQGLEWMGQIYPGDGETKYNGKFQGRVTITADKSTSTAYMELSSLRSEDTAVYYCARSHGNYLPYWGQGTLVTVSS
VL: EIVLTQSPATLSLSPGERATLSCRASQSVSSSYLHWYQQKPGQAPRLLIYSTSNLASGIPARFSGSGSGTDFTLTISRLEPEDFAVYYCHQYHRSPPTFGQGTKVEIK
IC50 cAMP assay (Fab), CB1 TRex CHO cells [10]: 43 nM | IC50 (read off the curve) [11]: ~40 nM
